In publication PMC11592144, “Biochemical Characterization of an Arabinoside Monophosphate Specific 5′-Nucleotidase-like Enzyme from Streptomyces antibioticus” (Biomolecules, 2024):

How the values were obtained:
[1] = substrate: Nc1ncnc2c1ncn2[C@H]1C[C@H](O)[C@@H](COP(=O)(O)O)O1; assay: HPLC of deoxyadenosine formation, Lineweaver-Burk; assay type: biochemical, Streptomyces antibioticus; settings: 50 mM HEPES pH 7.5, 1 mM MgCl2, 0.2-2.5 mM substrate, 0.2 mg/mL PenF
Text: HPLC of deoxyadenosine formation, Lineweaver-Burk on PenF

[2] = substrate: Nc1ncnc2c1ncn2[C@@H]1O[C@H](COP(=O)(O)O)[C@@H](O)[C@@H]1O; assay: HPLC of Ara-A formation, Lineweaver-Burk; assay type: biochemical, Streptomyces antibioticus; settings: 50 mM HEPES pH 7.5, 1 mM MgCl2, 0.01-1.5 mM substrate, 0.2 mg/mL PenF
Text: HPLC of Ara-A formation, Lineweaver-Burk on PenF

B1: PenF (Streptomyces antibioticus) (protein)
chain: MVTLPDRVRAHVLADFATADPAHDIHHLDRVAALAGDIAVLLGADPQTAQVAAYVHDYHRVEEARQGRRPIRPEEARSAVLDVLERSEVPEKLHGTILRAVELTGRYRFGGDELDGEDLIAAAVHDADNLDAMGAVGVGRAFAFGGLLGEPLWEPAAGLKELYTEGETSSVLAHLYEKLVHLEKDMLTEPARRLAAERAFQLHRFAAEFRSQWGEEDVVSHSGGTRVHWDPLTRFLAVTQPEPDGITVTHIGFRGQAMLAFDEQGQPVGVDLLGAPEALTHCVPHAQRSRAWVADAAGGWLLDAEADVVWISISEAPVRRRLTAVGDIEVQLREGKLATLRMHLTEEAPVSVGGEGAP
notes: codon-optimized penF in pET28a (NdeI/XhoI), C-terminal His6 tag, E. coli BL21(DE3), Ni-NTA; about 42 kDa by MALDI-TOF (45 kDa SDS-PAGE)
Km [1]: 344 µM
Vmax [1]: 11.9 µM/min
kcat [1]: 0.04 s⁻¹
kcat/Km [1]: 117 M⁻¹ s⁻¹
Km [2]: 71.5 µM
Vmax [2]: 170 µM/min
kcat [2]: 0.565 s⁻¹
kcat/Km [2]: 7900 M⁻¹ s⁻¹
